# Test results reported in patent US6008029A, “Purified coprinus laccases and nucleic acids encoding the same” (Novo Nordisk Biotech Inc., priority 1996, dated 1999).
# B1: recombinant Coprinus cinereus laccase Lcc1 (SEQ ID NO:27), expressed in Aspergillus oryzae (Coprinopsis cinerea) (protein)
# chain: QIVNSVDTMTLTNANVSPDGFTRAGILVNGVHGPLIRGGKNDNFELNVVNDLDNPTMLRPTSIHWHGLFQRGTNWADGADGVNQCPISPGHAFLYKFTPAGHAGTFWYHSHFGTQYCDGLRGPMVIYDDNDPHAALYDEDDENTIITLADWYHIPAPSIQGAAQPDATLINGKGRYVGGPAAELSIVNVEQGKKYRMRLISLSCDPNWQFSIDGHELTIIEVDGQLTEPHTVDRLQIFTGQRYSFVLDANQPVDNYWIRAQPNKGRNGLAGTFANGVNSAILRYAGAANADPTTSANPNPAQLNEADLHALIDPAAPGIPTPGAADVNLRFQLGFSGGRFTINGTAYESPSVPTLLQIMSGAQSANDLLPAGSVYELPRNQVVELVVPAGVLGGPHPFHLHGHAFSVVRSAGSSTYNFVNPVKRDVVSLGVTGDEVTIRFVTDNPGPWFFHCHIEFHLMNGLAIVFAEDMANTVDANNPPVEWAQLCEIYDDLPPEATSIQTVVRRAEPTGFSAKFRREGL
# Tests used:
# [1] = substrate: CCn1c(=NN=c2sc3cc(S(=O)(=O)O)ccc3n2CC)sc2cc(S(=O)(=O)O)ccc21; test: purified protein, by the assay type; settings: other: pH 5.3, ABTS oxidation, 20.0 °C
# [2] = substrate: COc1cc(C=NN=Cc2cc(OC)c(O)c(OC)c2)cc(OC)c1O; test: purified protein, by the assay type; assay type: biochemical, Coprinus cinereus; settings: other: pH 5.3, syringaldazine oxidation, 20.0 °C
# Protocol: Laccase activity is determined by syringaldazine oxidation. Specifically, 60 μl of syringaldazine stock solution (0.28 mM in 50% ethanol) and 20 μl of laccase sample are mixed with 0.8 ml of preheated Britton-Robinson buffer solution and incubated at 20° C. The oxidation is monitored at 530 nm over 5 minutes and activity is expressed as "SOU" μmole syringaldazine oxidized per minute ("SOU"). Britton-Robinson buffers with various pHs are used.
# The values for Km and kcat are determined by fitting initial rates (v=ΔA/Δt/Δe; Δe: extinction coefficient change), laccase concentration (E), and substrate concentration (S) into v=kcat *E*S/(Km +S) with the Prizm nonlinear regression software (GraphPad, San Diego, Calif.).
protein,measurement,setting,value
B1,Km,[1],23 ± 3 µM
same,kcat,[1],1090 ± 30 min⁻¹
same,Km,[2],26 ± 6 µM
same,kcat,[2],180 ± 20 min⁻¹
